# Laboratory results reported in article doi:10.1101/2020.01.27.921122 (bioRxiv, 2020).
# Several values for one entry are separate records, joined by “and”; a condition that tells them apart may be missing. Equal values may be shown once.
# Molecular target: T1, recombinant human Apaf-1(1-591AA)-His (human, UniProt O14727 1-591)
# T1 sequence (looked up): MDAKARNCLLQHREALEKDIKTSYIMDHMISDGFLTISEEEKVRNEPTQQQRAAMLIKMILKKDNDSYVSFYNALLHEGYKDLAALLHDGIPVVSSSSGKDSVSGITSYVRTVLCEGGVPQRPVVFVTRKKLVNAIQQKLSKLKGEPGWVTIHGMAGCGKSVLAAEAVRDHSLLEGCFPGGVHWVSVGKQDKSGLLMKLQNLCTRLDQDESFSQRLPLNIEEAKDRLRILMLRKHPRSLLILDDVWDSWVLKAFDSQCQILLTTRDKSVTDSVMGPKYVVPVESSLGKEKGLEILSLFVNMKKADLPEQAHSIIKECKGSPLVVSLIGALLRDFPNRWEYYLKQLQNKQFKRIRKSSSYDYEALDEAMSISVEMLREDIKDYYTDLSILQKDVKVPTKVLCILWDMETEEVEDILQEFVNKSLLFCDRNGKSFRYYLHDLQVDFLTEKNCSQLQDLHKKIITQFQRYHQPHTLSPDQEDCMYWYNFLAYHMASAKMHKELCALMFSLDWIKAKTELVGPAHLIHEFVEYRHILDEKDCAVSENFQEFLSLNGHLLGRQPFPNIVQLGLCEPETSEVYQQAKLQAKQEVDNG
# Assay: SEC
binder,measurement,value
"recombinant human caspase-4 (CARD)-Fc-HA (Fc fusion, UniProt P49662 1-91, looked up) MAEGNHRKKPLKVLESLGKDFLTGVLDNLVEQNVLNWKEEEKKKYYDAKTEDKVRVMADSMQEKQRMAGQMLLQTFFNIDQISPNKKAHPN",stoichiometry N,1.8 molecules of caspase-4 (CARD) for each Apaf (1-591) heptamer and 2.1 molecules of caspase-4 (CARD) for each Apaf (1-591) heptamer
